Measurements from patent US20140348862.

How the values were obtained:
Test in all cases: competition, FACS 4C
Conditions in all cases: modification not given
[1] = molecular target: HLA-B*3501 (human), P01889
HLA-B7 (human), P01889 = molecular target: HLA-B7 (human), P01889
[2] = molecular target: HLA-B*3501 (human), P01889; remark: listed apart in the source
[3] = molecular target: HLA-B*3501 (human), P01889; remark: listed apart in the source

| IC50 [1] | Binder | further results |
| --- | --- | --- |
| 2600 nM | GACDELFSY [PRAME 186-194] |  |
|  | RPRRWKLQVL [PRAME 113-122] | IC50 (HLA-B7 (human), P01889): < 1000 nM |
| 2830 nM | QPFIPVEVL [PRAME 170-178] |  |
| < 1000 nM | LPTLAKFSPY [PRAME 246-255] | IC50 [2]: 110 nM |
| 320 nM | EPILCPCFM [PRAME 499-507] | IC50 [3]: < 1000 nM |
| < 1000 nM | FPPLFMAAF [PRAME 53-61] |  |
| 1580 nM | LPRELFPPLF [PRAME 48-57] |  |
| < 1000 nM | LPRELFPPL [PRAME 48-56] |  |
| 2240 nM | IPVEVLVDL [PRAME 173-181] |  |
| 1980 nM | SPYLGQMINL [PRAME 253-262] |  |
